Test results: US12673985B2, “Method for the treatment or prophylaxis of cancer by targeting the extracellular portion of keratin 14 (KRT14) residing on cancer cells” (Hudson Institute of Medical Research, priority 2019, dated 2026)
“Also recorded” adds a separate entry of the source.

Columns and labels:
KRT14 = molecular target: T1, KRT14 (Homo sapiens, UniProt P02533); experiment: Immunohistochemical staining of FFPE tumour tissue sections; settings: 2 μg/ml-0.25 μg/ml, overnight incubation
T1 sequence (P02533 1-472): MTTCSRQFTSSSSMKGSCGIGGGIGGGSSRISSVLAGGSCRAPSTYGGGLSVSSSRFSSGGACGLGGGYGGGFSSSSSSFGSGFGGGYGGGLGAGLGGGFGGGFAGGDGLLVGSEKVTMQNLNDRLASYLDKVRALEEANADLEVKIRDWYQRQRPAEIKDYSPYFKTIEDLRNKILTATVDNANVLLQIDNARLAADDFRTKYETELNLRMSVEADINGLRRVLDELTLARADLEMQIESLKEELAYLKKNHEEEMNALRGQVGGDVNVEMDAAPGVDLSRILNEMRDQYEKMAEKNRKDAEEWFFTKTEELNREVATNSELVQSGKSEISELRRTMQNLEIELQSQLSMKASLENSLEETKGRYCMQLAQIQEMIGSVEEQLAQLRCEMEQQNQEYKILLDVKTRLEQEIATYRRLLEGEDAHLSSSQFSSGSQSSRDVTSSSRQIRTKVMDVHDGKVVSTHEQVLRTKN
Protocol: Human Tissue Arrays and Immunohistochemistry. Immunohistochemistry was performed on tissue micrarray (TMA) sections purchased from USBIOMAX (#ov2085, #ov20811) or generated in house (tumour and fallopian tube) as previously described [Bilandzic et al. (2014) Cancer Lett 354(1):107-114; Rainczuk et al. (2013) J Proteome Res; Salamonsen et al. (2013) Fertil Steril 99(4):1086-92](Supplementary Data 6 and 7). For antigen retrieval, sections were incubated for 10 minutes in 50 mM glycine (pH 3.5) at 90° C. Sections were incubated overnight at 4° C. with Rb-KRT14 antibody (1:100, Sigma, SAB4501657) and mAb AN-17 (1:500) in 0.1% w/v BSA/PBS. Subsequent steps were performed at room temperature, with PBS washes between incubations. […] Antibody binding was detected as a brown precipitate after development with 3,3′-diaminobenzidine tetrahydrochloride, and Harris hematoxylin was used as counterstain. […] Positive immunostaining was assessed relative to parallel sections exposed to an isotype (IgG) control. Immunostaining in tumor and stromal tissue was assessed using Aperio ImageScope (v 12.3.3) as described (Rainczuk et al. (2013) supra). […]

KRT14+ cells = experiment: Flow cytometry for KRT14+ cell populations in ovarian cancer cells; format: cell-based, human and murine; settings: mAb AN-17 1:200
Protocol: (§1) Flow cytometry was carried out according to standard protocols (PMID: 30602661), with data acquired using a BD LSRFortessa X-20 (BD Biosciences) and analysed using FlowJo software v10.5.0 (BD Biosciences). Samples assessed for KRT14+ cell populations included OVCAR3, CAOV4, ID8 mouse ovarian cancer cells, ascites-derived ovarian cancer cells derived from a clinical specimen (designated #3.1937-07) and cardiac blood from a mice bearing 12-week old epithelial ovarian tumours. For cell lines, 1×10^6 cells per cell line were incubated with either mAb AN-17 (1:200 dilution) or a commercially available anti-KRT14 polyclonal antibody (Sigma SAB4501657; 1:50 dilution) as a positive control for 45 mins in non-immune serum at room temperature. The secondary antibodies, goat anti-mouse Alexa647 (mAb AN-17) or goat anti-rabbit IgG Alexa 488 (commercial Ab), were diluted 1:500 and incubated for 30 minutes. For blood samples, 2×10^6 cells were incubated with an Alexa Fluor®488-conjugated mAb AN-17 antibody for 45 minutes. Following PBS washes, cells were resuspended in PBS/2% FBS data was acquired using a BD LSRFortessa X-20 (BD Biosciences) flow cytometer.

KRT14+ CTCs = experiment: Flow cytometry detection of circulating tumour cells in blood of mice bearing ID8 iRFP720+ epithelial ovarian tumours; format: cell-based; settings: confirmed by iRFP720+ status
Protocol: as §1
Expression of extracellular KRT14 also marks the circulating tumour cell (CTC) population.

ID8 ovarian tumour = settings: mouse, in vivo
Protocol: Control mice received vehicle (PBS) alone. At time points from 4 hr to 7 days post-injection, mice were culled and selected tissues (liver, kidney, spleen, intestine, ovary+fallopian tube/ovarian tumour (as relevant), brain, heart, lung) were harvested. Tissue distribution and clearance were assessed by ALEXA647 or ALEXA750 fluorescence using an IVIS Lumina III Imaging System (Perkin Elmer). Bright-field (auto-exposure) and fluorescence imaging (ALEXA647 ex640, em670; or ALEXA750 ex740, em790 nm). Spectral unmixing and image analysis were performed as previously described (PMID: 30602661; Wilson et al., Cancers (Basel). 2018 Dec. 31; 11(1), E32). Background average radiant efficiency from vehicle-treated animals were subtracted from fluorescence measurements in each case, and the resulting data plotted for comparison.

[1] = Tissue distribution and clearance by fluorescence in mice without tumours; format: in vivo
Excerpt: Control mice received vehicle (PBS) alone.

[2] = system: OVCAR4 ovarian cancer cells; experiment: Real time cell analysis (RTCA) of proliferation with cisplatin and mAb AN-17; format: cell-based, human
Protocol: Real time cell analysis (RTCA) was conducted as previously described (PMID: 31443478; Bilandzic et al., Cancers (Basel). 2019; 11(9), E1228) using an xCELLigence RTCA SP 96-well instrument (ACEA Biosciences). Cell lines were synchronized in G0 by overnight incubation in serum-free media and were seeded at 0.5×10^3 cells/0.15 ml/per well. […] Impedance readings were taken every 15 minutes for the experimental duration. mAb AN-17 comprises the heavy chain variable region of SEQ ID NO:3 and the light chain variable region of SEQ ID NO:5, encoded by the nucleic acid sequences of SEQ ID NOs:2 and 4, respectively (see also FIGS. 21 and 22A-22B).

B1: mAb AN-17: monoclonal anti-KRT14 antibody; heavy chain variable region SEQ ID NO:3, light chain variable region SEQ ID NO:5 (clone AN-17A RG4.E5b.A7.B4) (antibody, listed as Mus musculus, V domains shown)
VH: QVQLKESGPGLVAPSQSLSITCTVSGFSLSRYSVHWVRQPPGKGLEWLGMIWGGGSTDYNSALKSRLSISKDNSKSQVFLKMNSLQTDDTAMYYCARKDYGYSYFDYWGQGTTLTVSS
VL: DVLMTQTPLSLPVSLGDQASISCRSSQSIVHSNGNTYLEWYLQKPGQSPKLLIYKVSNRFSGVPDRFSGSGSGTDFTLKISRVEAEDLGVYYCFQGSHVPFTFGSGTKLEIKRADAAPTVS
staining localization in tumour tissue (KRT14): Staining was restricted to tumour epithelium
staining localization in tumour tissue (KRT14; listed as mAb A-17): staining observed specifically in the tumour epithelium
detection of KRT14+ cells by flow cytometry compared to Sigma SAB4501657 (KRT14+ cells): comparable sensitivity
identification of circulating tumour cells from whole blood (KRT14+ CTCs): able to detect and isolate KRT14+ CTCs
identification of circulating tumour cells from whole blood (KRT14+ CTCs; listed as mAB AN-17): able to correctly identify iRFP+ cells from whole blood
initial levels in tumour tissue vs reproductive tract of mice without tumours (ID8 ovarian tumour): 2 orders of magnitude
non-selective accumulation or retention in healthy tissues ([1]; doses from 0.5 mg/kg to 10 mg/kg i.p.): does not exhibit non-selective accumulation or retention in healthy tissues; also recorded: No non-specific retention
detectability in organs after 7 days ([1]; doses from 0.5 mg/kg to 10 mg/kg i.p., even at the highest dose): virtually undetectable in all organs after 7 days; also recorded: largely undetectable after 7 days
antibody-associated fluorescence in brain ([1]; single dose 0.5 mg/kg i.p.): no fluorescence was detected in brain
tissues with antibody-associated fluorescence ([1]; single dose 0.5 mg/kg i.p.): observed in intestine, reproductive organs, liver, kidney, spleen, lung and heart
specific accumulation / non-specific retention in healthy tissues vs isotype control ([1]; single dose 0.5 mg/kg i.p., 7 day period, 0.5 mg/kg): no specific accumulation; also recorded: no non-specific retention
clearance from organs by day 7 ([1]; single dose 0.5 mg/kg i.p., 0.5 mg/kg): largely cleared from all organs; also recorded: almost undetectable after 7 days
enhancement of the toxicity of cisplatin ([2]; cisplatin at sub-lethal doses): significantly enhanced the toxicity of cisplatin
increase in sensitivity of cells to standard platinum chemotherapy ([2]; in vitro): at least 10 fold
cell viability or proliferation ([2]; mAb AN-17 alone (1 ug/ml)): had no effect on cell viability or proliferation
